{"source": "the DeepSol protein solubility set"}
{"assay": "soluble on expression in E. coli; label from the status in PepcDB or PDB records"}
{"sequence": "MRSLIGMTFLNSSVGQRRLRQNGIVLRLGPVVADRRRATLPHRQGHCLDRQDLETLLLWLQRHFLCVPLEHLLEGPAPACLRIALSVDGNPAELAEQVYPLLERYEMPASAFIGGDPRSWREAVAETLWQADATAAGPLLELLEGYSGAALMAVFERTGDDQRRSRNLDLLLRKLERLDPASQQALHAACPVPAPYSAGDWERVRRLENSGLLRFGLRGQEPHPSAGLCAEDCLGRAHRQLQQHCAAPLPVFCQARTTPAAQPGLRAALGRLGYRFAFGARNGLVDTRCDPLDLPRIEVDAAIAARPGRLAWHIYRGARP", "soluble on expression in E. coli": "not soluble"}
{"sequence": "PDAARKAQILWCQPDRAKAWTDWMRKGKFPVGGSICDNPVAETTSLGEQFGFNGTPTLVFPNGRSQSGYSPMPQLEEIIRKNQ", "soluble on expression in E. coli": "not soluble"}
{"sequence": "MATKEKHVRKPDWVKIKLNTNENYIGLKKLMRENRLHTVCEEAKCPNIHECWAVRRTATFMILGSVCTRACRFCAVKTGLPTELDWQEPERVAESVRIMNLKHVVVTAVARDDLKDGGAAVFAETVRAIRRKNPFTTIEVLPSDMGGVYENLKILMDARPDILNHNIETVRRLTPRVRARATYERSLEFLRRAKELQPDIPTKSSIMVGLGETKEEIIEAMDDLRANHVDILTIGQYLQPTKKHLKVVKYYHPDEFQELKEIALSKGFSHCEAGPLVRSSYHADEQVSEAAKARQLKA", "soluble on expression in E. coli": "not soluble"}
{"sequence": "MGSDKIHHHHHHMKKAAIITIGSELLEGLILNKNAQFLCQELKNLGYRVVKVSTVGDDLISISEEVKTLLLKVDLLILTGGLGPTQDDLTRDAVAKVLNRSLKLNEELLSKIKEKIKKYHSEIPQNIERQALVIDGAEVLDNPVGSAPGQLLTVDGKIVILLPGPPRELIPMFNALKDRLRTPDALYQVVLKYYSIPEAVLEDLLKDILYSQNIVEVATMADHVEGVRLRLTTHMKNKEYLDEMVKKILDKTGEHLYGVNDEKMEEVVVRLLKDRKKTLAVAESCTGGMLSSLVVNVPGASEVFIGGVVAYSNDLKKHILGVREDTLKKHGAVSEECVQEMTEGLKKLTGADICVSISGIAGPSGGTPEKPVGTVFIDIFEHEHITMRYNFTGDRNMIRTRSAMMALENLRKYLKGRERV", "soluble on expression in E. coli": "not soluble"}
{"sequence": "TQLHATRQAIVEAGQAIKMDKNGVQKLPVLNIYNEQQKWQKHQLMVENLPLNQVLQELDRNYKGKIIFNDAALQHVRVNAVLPLDQTTESLKLLATVFPDLKIKQIMPFVVMVSLK", "soluble on expression in E. coli": "not soluble"}
{"sequence": "MNNLALQSLTESIAIKYFGKAFKHEVYYNKRLRTTGGRYILSSHNIEINPKQYEMFGEKAVIDIIKHELCHYFLHLAGEGYQHRDKAFKSLSAKVGAPRFCTPTESYQDRANYKYRCIYCEQEFIRIKRVNLEKMRCGRCGGILKLLQTRKLEHHHHHH", "soluble on expression in E. coli": "not soluble"}
{"sequence": "MSLINGSDPRYNFNVAPYPYCRLCKGHKHMCGLRVCPILERFQEVFPRLDLHGDISTSTPPSIFIGEYNYPSVYGGIMSVVDPERPYARRDMFDLGMPEIIERNANLFRNVKTVSVHNLSEKTVEQIQEAAMALNELRVESRIVGKEKHFDFFDSPVGPMYKSENIKVYGNAKTPRAAQDVIYDIDLNSTEALKILYMNSIDINYITGLLSGGLLGIEKKRKLVPTRWSITAVDDTISRYLKSDALNYESIDKPMVFSYSRFGNHFNIILLPRGTAFEMQEYWEIGSLWGSDGRVSIDFEGHHHHHH", "soluble on expression in E. coli": "soluble"}
{"sequence": "MGSDKIHHHHHHMIFIPPFEQGKLLRRYKRFLADVLLDDGTEITIHCPNTGSMRNCLFPGERVWFSTSDNPKRKYAHTWEQAASDEGHIIGINTGRANALAAEAIEAGVISELTGYDRLRREVKYGSENSRIDLLLESEDKPACYIEVKSCTLLEQGQGYFPDAVTTRGQKHLRELMEMVKQGHRAVLLFVVQHTGITTVAAARHIDPEYAELLTQAHQAGVEILAYSCELSPSAAKLIKSCPVKL", "soluble on expression in E. coli": "not soluble"}
{"sequence": "MVDKDIHSEHWYHGLLPREDIKAMLRKNGDFLVRSTEPKAGEPRQYVLSAMQSEELEDAGVKHYVMRLNSSNQIFLEAKGFETIASLVNYYMSSKEPIKKLTVLKTPILKQPWEIEHSQVELTKKLGEGAFGEVWKGKLTLKNGNVENCAIKTAKLESLNKEQIKEIMREARLMRNLDHPNVVKFYGVGASQEPLYVIMELADCGALDSYLQKNPNLVPDKKMEMIYQAACGISYMHEKKLLHRDIAARNCLYGGGQVKIADFGLSREGISYVMDLTKKVPIRWLAPETLKAGIYSPKTDVFAFGIMAWEITENGKEPYPDMRVADVVGKVRNGYRMRFDPVFVDFRFGDYVTKHCWAENPADRVSMADVLRYLQTTFGMKPVVLSILSSNRSTEEEMKTMKPPMFSVKRNNKKKPK", "soluble on expression in E. coli": "not soluble"}
{"sequence": "MLPAYIRIHDQIKKEIDEGLWKIGDRLPSERDLAERFEVSRMTLRQAITLLVEEGILERRVGSGTYIASSRVQEKMRGTTSFTEIVKSQGKTPSTKLISYRRVHPSEQEIKFLDIKPKSYIIRMERVRYADDIPVVFEVTAIPEKIIKSFKKEAITKHFFKTLTDHGFVIGKSQQTISASNANEMTADYLAISRGHAVLTLAQVSYFENGMPFEYVRSQYVGERFEFYLENK", "soluble on expression in E. coli": "not soluble"}
{"sequence": "GAMASLVVPNLMGNKDKADRQKVMSDLVALESTLDMYRLDNNRYPTTEQGLRALVSKPTVQPEPRNYRQDGYIRRLPQDPWGGDYQLLNPGQYSDIDIFSPGPDGVPNTEDDIGNWTLGNAQP", "soluble on expression in E. coli": "soluble"}
{"sequence": "MPNNLELKQLIASAQVLGLQNDSSLPAFDRQILRMADEEKRALSPTEIQHICQTSKVDAQLIEQLQSQANHLVQQAREFLVKEQPHLVQSGGALFPSERAEACWRDCWQFFRVIVYAIACKRPLFTDAEGMGALRALYAHVGVPIEGLNIALKQLKVLSRQEISGAIEAPLLSESFGHLLEELNKTGVKS", "soluble on expression in E. coli": "not soluble"}
{"sequence": "MDPLDRLIQLANLQGRLDQRCQLQGSWALEHPQAVPGEATFHIVMAGTCYCEFLDGGRLDLHPGDLILLPRGTPHLLRSDSPAQPCEPTVEHRGSIPLYQLNGPGEALDMLCGSYRYHAGASLFGALPERLLVHMDESTQQPLRALIGLMREEAESTRSGARSIIDALATALFALALRAYLDRQPLGDGLFGLLGDARLGRALRAMLERPEHAWTLEQLAQQAAMSRASFVRAFSALGGTSPWNLLTRIRMEKARGLLRQTQKSLLDIAAETGYQSEAAFSRNFRQAFGESPGRFRRQADSAR", "soluble on expression in E. coli": "not soluble"}
{"sequence": "MIDMFHINIPFKKDVIIEMGDCGFVDFAKLAEKTELKIACGNVEFSVVNDQKKVRTDDLYHPWSTIPSSYTDIACKVFDAEPRANVFWGYLQLKASPAKVMQGHNVYGSEDFRLCVEYLLDSLQKAQPELWELLDVGLAEMTRIDCTYSIKCANPDILRQTIKQMGNVSNRYIKPARNSDFETTLYFNRATKANPGAGRSFELCIYTKHDEIAHQLADLKRRARQGDSDRFNRIIDELSKPELQAFAANRLRFEGRAKKRFIQKHVGSANLWQVIRHAEQFEAKNGYRFCEWMFKTLFHDLLESLKGEELELYNDSKIKQLLRDAYSTMTPKGNISYAKADRLFRFYMTLCDRGYQELKAHSSKATLHRNMRDLMAIGFSKADLQNLSEGERMPLAQVLNFNFDNQRPANYVEPVSPTALEHHHHHH", "soluble on expression in E. coli": "not soluble"}
{"sequence": "MLDPARSYDLIGDVHGCALTLEHLLDRLGYHKQAGVWRHPSRMAVFLGDIIDRGPRIRESLHIVHDMVEAGQALCIMGNHEFNALGWSTPAAEGSGKQFVREHTPRHARLIHETLTQFEQHPGDWHDFLQWFYELPLFVDAGRFRVVHACWDAGLIAPLRQQYPNGCIDREFLQSAAVPDSFACTAFDRLLRGTDMRLPHGLTMTSGDGLTRAFFRTKFWEDDPQTYGDIVFQPDALPEPVARTPLSPAEKNSLLRYGAEEPMLFVGHYWRSGKPAPIRPNLACLDYSAVLYGKLAAYRLDQETRLDPNKFVWVDVERPEVVRLEHHHHHH", "soluble on expression in E. coli": "not soluble"}
{"sequence": "KYQLMANDPVQYKALGKMLGSMGRSDPNEIAPLYFSELMAALKKCATRRTHTNVLQHLCGYLKQTISAEDKQEIQEVIGQYHQGIVPLIVPLTLLKHHFRQHPDPYVALQVYMQPHP", "soluble on expression in E. coli": "not soluble"}
{"sequence": "SEKRFKVYVYEEGEPPLVHDGPCKSVYAVEGRFITEMEKRRTKFRTYDPNQAYVYFLPFSVTWLVRYLYEGNSDAKPLKTFVSDYIRLVSTNHPFWNRTNGADHFMLTCHDWGPLTSQANRDLFNTSIRVMCNANSSEGFNPTKDVTLPEIKLYGGEVDHKLRLSKTLSASPRPYLGFFAGGVHGPVRPILLKHWKQRDLDMPVYEYLPKHLNYYDFMRSSKFCFCPSGYEVASPRVIEAIYSECIPVILSVNFVLPFTDVLRWETFSVLVDVSEIPRLKEILMSISNEKYEWLKSNLRYVRRHFELNDPPQRFDAFHLTLHSIWLRRLNLKLT", "soluble on expression in E. coli": "soluble"}
